The values below come from article PMC5109244.

The test has as its target T1, short mouse DNGR-1 ECD (extracellular domain of the short isoform of mouse DNGR-1) (mouse), Q8BRU4.
T1 chain: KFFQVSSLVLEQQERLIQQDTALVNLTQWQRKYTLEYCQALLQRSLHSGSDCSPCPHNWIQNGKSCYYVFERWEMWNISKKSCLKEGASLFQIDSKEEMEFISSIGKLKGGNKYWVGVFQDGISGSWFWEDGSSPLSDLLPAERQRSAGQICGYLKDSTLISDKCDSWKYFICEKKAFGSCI
The test can be described thus: non-reducing SDS-PAGE and Western blot; supernatants of 293F cells with FLAG-tagged ECD proteins, Laemmli buffer without reducing agent, HRP-conjugated anti-FLAG detection. As to conditions: remark: other sources report otherwise. For orientation: Immunoblotting shows a protein as a band on a membrane.

B1: short mouse DNGR-1 ECD (extracellular domain of the short isoform of mouse DNGR-1), Q8BRU4 57-238 (domain or fragment)
chain: T1 chain
modifications: here or on the partner: glycosylated (mobility augmented by PNGase F); glycosylated (mobility augmented by PNGase F)
B1 gave a stoichiometry N of 2.

The term stoichiometry N denotes a count of units in the complex or per binding partner.
